Assay results taken from US20080182332.

How the values were obtained:
Assay in all cases: cell_activity
[1] = system: IL-1-FokI C2H2 (pDAB4341/pDAB4323) (engineered); conditions: pDAB4341, tobacco BY2-380; pDAB4323 (non-plant codon FokI) 5.53
[2] = system: IL-1-FokI C3H F2 HIRTGC (pDAB4346/pDAB4356) F2 zinc coordinating region HIRTGC (engineered); conditions: pDAB4346, tobacco BY2-380 intrachromosomal recombination; pDAB4356 also active in interchromosomal HR
[3] = system: IL-1-FokI C3H F4 HAQRCG (pDAB4344) F4 zinc coordinating region HAQRCG (engineered); conditions: pDAB4344, tobacco BY2-380
[4] = system: IL-1-FokI C3H F4 HTKIC (pDAB4342) F4 zinc coordinating region HTKIC (engineered); conditions: pDAB4342, tobacco BY2-380
[5] = system: IL-1-FokI C3H F4 HTKRCGGG (pDAB4343) F4 zinc coordinating region HTKRCGGG (engineered); conditions: pDAB4343, tobacco BY2-380

IL-1-L0-FokI site, 4 tandem repeats
activity (GFP expression) [1]: 6.37 | activity (GFP expression) [2]: 9.5 | activity (GFP expression) [3]: 4.39 | activity (GFP expression) [4]: 0.25 | activity (GFP expression) [5]: 7.57
